Test results from US6946258B2, “Rapid, immunochemical process for measuring thiopurine methyltransferase” (Biologix Diagnostics, LLC, priority 2002, dated 2005).
Substitutions are numbered along the chain they refer to. Each block holds one molecule with its values, some of them ahead of it.

How the values were obtained:
human TPMT = biological target: T1, human TPMT (Homo sapiens, UniProt P51580); details: Deininger et al., 1994, Table 1; cited from earlier work
T1 sequence (P51580 1-245): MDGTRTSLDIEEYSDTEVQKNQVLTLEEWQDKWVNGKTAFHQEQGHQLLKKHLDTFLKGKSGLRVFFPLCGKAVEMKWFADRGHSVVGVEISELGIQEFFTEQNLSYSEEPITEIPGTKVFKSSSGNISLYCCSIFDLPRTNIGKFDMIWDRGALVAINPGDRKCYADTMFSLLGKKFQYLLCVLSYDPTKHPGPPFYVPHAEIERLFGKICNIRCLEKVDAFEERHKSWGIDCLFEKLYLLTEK

hTPMT enzyme [1] = biological target: T2, hTPMT enzyme (Homo sapiens, UniProt P51580, Y240C); assay: ELISA immunoassay for TPMT using purified anti-6-MMP IgG; format: biochemical; details: TPMT + 100 μM SAM, 37° C., 30 minutes
T2 construct: DNA fragment; first 13 codons of LacZ (vector-encoded leader of pGEM-3Zf(+)) (N); made in house; host or cells: E. coli JM109 (pTPMT)
T2 sequence (P51580 1-245 Y240C): T1 sequence (P51580 1-245) with Y240C
Description: In order to determine whether TPMT enzyme could methylate 6-MP bound to BSA in reaction wells of a plastic ELISA plate, and if the anti-6-MMP antibody could detect the methylated 6-MMP reaction product, the following assay format was developed: [drawing 3] Schematic Representation of ELISA Assay for TPMT. Substrate BSA-6-mercaptopurine conjugate is coated onto the wells of plastic ELISA plates. In the presence of S-Adenosylmethionine (SAM), TPMT catalyses S-methylation of 6-MP to 6-methylmercaptopurine (6-MMP). Rabbit anti-6-MMP IgG binds to the covalently bound 6-MMP reaction product; and Protein A-Horseradish peroxidase (HRP) conjugate then binds to the rabbit IgG. Blue color develops in the presence of the HRP substrate, Tetramethylbenzidine. After acidification, the color changes to yellow; and the optical density at 450 nm is directly proportional to the amount of 6-MMP produced by enzyme-catalyzed TPMT methylation.
The wells of ‘Immulon B’ ELISA strips were coated with various concentrations of BSA-6MP conjugate and blocked as described above. After blocking solution was removed, the wells received 100 μl of Methylation Reaction Mix consisting of 1 mM Potassium Phosphate, 30 mM Tris-HCl, pH 8.0, lmM EDTA, 100 μM SAM and 1-4 μl of TPMT enzyme (˜6 units/μl). As a control, the wells received 100 μl of same reaction mix except no Mtase enzyme.
The wells were incubated at 37° C. for 30 minutes and were developed as described before. Absorbance was read on an Opsys MR ELISA plate reader (Dynex) at 450 nm. In this ELISA assay format, TPMT enzyme activity is detected as the amount of 6-MMP formed in situ: substrate 6-mercaptopurine is covalently bound to BSA which coats the wells of the plastic ELISA plate. Since anti-6-MMP IgG binds specifically to the methylated reaction product, 6-MMP, it is possible to measure TPMT activity using horseradish peroxidase (HRP) labeled Protein A (or HRP-conjugated goat anti-rabbit IgG). […]

[2] = Storage stability of recombinant TPMT; format: physicochemical; details: storage of 2 and 5 months at −20° C.
Method: The optimal reaction temperature for the hTPMT enzyme is 37° C. […] The relatively high activity of TPMT at ambient temperature facilitates immunoassays using anti-6-MMP antibody. After a storage of 2 and 5 months at −20° C., no change in TPMT enzyme activity was observed.

hTPMT enzyme [3] = biological target: T2, hTPMT enzyme; assay: Temperature optimum of recombinant TPMT; format: biochemical
Method: Thawed cells (˜15g) were sonicated in (20 mM Tris-Cl, pH 7.5, 1 mM EDTA, 50 mM KC1, 10 mM β-mercaptoethanol) and centrifuged (8000 g for 15 minutes). The supernatant was loaded onto a Q-Sepharose column (Pharmacia, Piscataway, N.J.). […] After a storage of 2 and 5 months at −20° C., no change in TPMT enzyme activity was observed.

Molecule: OC[C@H]1O[C@@H](n2cnc3c(S)ncnc32)[C@H](O)[C@@H]1O [6-mercaptopurine riboside]
substrate quality for human TPMT (human TPMT): relatively good substrate

Absorbance at 450 nm (hTPMT enzyme [1]; wells coated with BSA:6-MP 10 μg/ml): 2.228 | Absorbance at 450 nm (hTPMT enzyme [1]; wells coated with BSA:6-MP 100 μg/ml): 2.440 | Absorbance at 450 nm (hTPMT enzyme [1]; wells coated with BSA:6-MP 1 mg/ml): 2.561
Molecule: BSA:6-MP: 6-MP (TPMT substrate) linked to BSA by periodate oxidation chemistry; coated onto ELISA wells

optimal reaction temperature (hTPMT enzyme [3]): 37 °C
B1: hTPMT enzyme: Recombinant human thiopurine methyltransferase expressed in E.coli JM109 (pTPMT), partially purified (protein, UniProt P51580 1-245, looked up)
Thiopurine S-methyltransferase: T1 sequence (P51580 1-245)
modifications: recombinant, E. coli
notes: Recombinant human thiopurine methyltransferase expressed in E.coli JM109 (pTPMT), partially purified
change in TPMT enzyme activity after storage [2]: no change | enzyme activity at 23° C. relative to the optimum (hTPMT enzyme [3]; 23° C.): nearly as active
